These results are taken from patent JP2023550785A (dated 2023).

Test [1] deals with T1, spike protein of alphacoronavirus NL63-CoV (HCoV-NL63, UniProt Q6Q1S2 16-1291).
T1 sequence: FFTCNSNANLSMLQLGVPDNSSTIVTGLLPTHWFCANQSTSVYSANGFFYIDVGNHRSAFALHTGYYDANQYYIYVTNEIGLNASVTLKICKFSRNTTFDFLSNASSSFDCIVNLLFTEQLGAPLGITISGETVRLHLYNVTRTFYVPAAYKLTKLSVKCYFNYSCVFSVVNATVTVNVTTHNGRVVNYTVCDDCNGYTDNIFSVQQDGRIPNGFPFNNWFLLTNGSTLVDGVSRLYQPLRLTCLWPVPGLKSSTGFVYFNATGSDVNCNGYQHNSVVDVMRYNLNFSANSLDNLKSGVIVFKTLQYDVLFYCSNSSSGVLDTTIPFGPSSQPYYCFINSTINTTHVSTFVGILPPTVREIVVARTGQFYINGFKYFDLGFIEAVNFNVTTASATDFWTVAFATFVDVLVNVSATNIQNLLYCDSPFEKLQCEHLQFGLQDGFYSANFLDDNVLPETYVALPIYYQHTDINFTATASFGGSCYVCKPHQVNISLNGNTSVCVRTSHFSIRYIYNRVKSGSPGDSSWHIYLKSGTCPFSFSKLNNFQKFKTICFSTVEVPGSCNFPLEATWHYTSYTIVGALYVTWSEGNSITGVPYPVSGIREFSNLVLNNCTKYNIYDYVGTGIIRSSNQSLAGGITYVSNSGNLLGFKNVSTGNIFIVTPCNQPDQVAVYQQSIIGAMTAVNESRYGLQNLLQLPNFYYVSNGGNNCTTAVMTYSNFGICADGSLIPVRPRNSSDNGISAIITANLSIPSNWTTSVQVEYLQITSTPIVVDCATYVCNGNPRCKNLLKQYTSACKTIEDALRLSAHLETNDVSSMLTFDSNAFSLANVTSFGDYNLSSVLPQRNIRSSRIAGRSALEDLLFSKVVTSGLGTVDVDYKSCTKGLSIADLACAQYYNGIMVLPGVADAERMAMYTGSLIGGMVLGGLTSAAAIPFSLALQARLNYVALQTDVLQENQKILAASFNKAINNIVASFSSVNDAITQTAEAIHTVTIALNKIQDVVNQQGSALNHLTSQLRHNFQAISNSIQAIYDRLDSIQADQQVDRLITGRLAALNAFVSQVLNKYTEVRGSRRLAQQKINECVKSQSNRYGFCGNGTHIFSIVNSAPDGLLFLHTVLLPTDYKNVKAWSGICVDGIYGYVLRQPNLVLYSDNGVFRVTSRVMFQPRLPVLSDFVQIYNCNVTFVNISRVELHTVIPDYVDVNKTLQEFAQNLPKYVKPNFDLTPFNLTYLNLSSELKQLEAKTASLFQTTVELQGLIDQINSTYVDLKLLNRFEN
Briefly: ELISA on alphacoronavirus spike proteins (Fig 37). For orientation: An ELISA detects its analyte on a solid surface through an enzyme-linked reagent.

The target of test [2] is T2, spike protein of alphacoronavirus 229E-CoV (HCoV-229E, UniProt P15423 16-1115).
T2 sequence: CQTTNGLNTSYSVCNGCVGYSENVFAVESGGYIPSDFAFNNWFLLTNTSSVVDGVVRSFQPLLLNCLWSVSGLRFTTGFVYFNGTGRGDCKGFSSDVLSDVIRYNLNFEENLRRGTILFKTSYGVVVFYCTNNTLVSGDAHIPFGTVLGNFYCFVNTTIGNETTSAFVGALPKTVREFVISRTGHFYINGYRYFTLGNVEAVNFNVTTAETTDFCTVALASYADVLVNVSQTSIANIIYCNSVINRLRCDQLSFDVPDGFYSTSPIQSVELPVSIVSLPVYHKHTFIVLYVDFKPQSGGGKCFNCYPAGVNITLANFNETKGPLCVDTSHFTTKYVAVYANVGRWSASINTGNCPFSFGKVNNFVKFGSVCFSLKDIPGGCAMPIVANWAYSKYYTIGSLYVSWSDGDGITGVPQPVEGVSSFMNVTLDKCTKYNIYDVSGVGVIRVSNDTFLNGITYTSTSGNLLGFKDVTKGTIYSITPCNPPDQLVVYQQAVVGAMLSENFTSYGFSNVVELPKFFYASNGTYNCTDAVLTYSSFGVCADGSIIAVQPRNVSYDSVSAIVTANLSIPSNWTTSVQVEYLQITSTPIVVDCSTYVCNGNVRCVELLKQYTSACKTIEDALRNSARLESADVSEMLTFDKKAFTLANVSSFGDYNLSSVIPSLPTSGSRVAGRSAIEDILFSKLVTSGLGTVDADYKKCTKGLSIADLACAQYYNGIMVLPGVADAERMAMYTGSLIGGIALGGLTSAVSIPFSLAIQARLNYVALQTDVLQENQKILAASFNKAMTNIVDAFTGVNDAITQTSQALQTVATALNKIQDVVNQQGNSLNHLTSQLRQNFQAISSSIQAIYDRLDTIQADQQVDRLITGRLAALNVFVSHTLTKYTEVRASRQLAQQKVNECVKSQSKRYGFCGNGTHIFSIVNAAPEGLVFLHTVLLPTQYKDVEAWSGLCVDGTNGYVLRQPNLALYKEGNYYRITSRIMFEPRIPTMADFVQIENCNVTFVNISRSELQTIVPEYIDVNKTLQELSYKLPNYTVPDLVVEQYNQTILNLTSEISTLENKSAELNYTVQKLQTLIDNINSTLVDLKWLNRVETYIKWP
Put plainly: ELISA on alphacoronavirus spike proteins (Fig 37).

B1: antibody S2P6 (antibody 420 1 1), human monoclonal antibody expressed as recombinant human IgG1 (antibody, V domains shown)
VH: EVQLVQSGAEVKKPGASVKVSCKASGYTFTSQYMHWVRQAPGQGLEWIGIINPSGVHTSYAQKFQGRVTLTRDTSTSTLYMELSSLRSEDTAVYYCARGSPKGAFDYWGQGTLVTVSS
VL: not shown
For the molecule B1, the binding result in test [1] and in test [2] was “no binding” in each case.
